From paper PMC7058361, “Functional interactions between posttranslationally modified amino acids of methyl-coenzyme M reductase in Methanosarcina acetivorans” (PLoS Biology, 2020)

B1: McrA from the ΔmcmAΔycaO-tfuA double mutant of M. acetivorans (lacks S-methylcysteine and thioglycine) (natural protein, Methanosarcina acetivorans, UniProt Q8THH1 1-570, looked up)
chain: MAADIFAKFKKSMEVKFTQEYGSNKQAGGDITGKTEKFLRLGPEQDARKQEMIKAGKEIAEKRGIAFYNPMMHMGAPLGQRAITPYTISGTDIVAEPDDLHYVNNAAMQQMWDDIRRTCIVGLDMAHETLEKRLGKEVTPETINHYLETLNHAMPGAAVVQEMMVETHPALVDDCYVKIFTGDDELADEIDKQYVINVNKMFSEEQAAQIKASIGKTTWQAIHIPTIVSRTTDGAQTSRWAAMQIGMSFISAYAMCAGEAAVADLSFAAKHAALVSMGEMLPARRARGPNEPGGLSFGHLSDIVQTSRVSKDPAKIALEVVGAGCMLYDQIWLGSYMSGGVGFTQYATAAYTDDILDNNTYYDVDYINDKYNGAANLGTDNKVKATLDVVKDIATESTLYGIETYEKFPTALEDHFGGSQRATVLAAASGVACALATGNANAGLSGWYLSMYVHKEAWGRLGFFGFDLQDQCGATNVLSYQGDEGLPDELRGPNYPNYAMNVGHQGGYAGIAQAAHSGRGDAFTVNPLLKVCFADELMPFNFAEPRREFGRGAIREFMPAGERSLVIPAK
modifications: N1-methylhistidine at His271; 5-(S)-methylarginine at Arg285; didehydroaspartate at Asp470; Gly465 and Cys472 unmodified
notes: McrA, alpha subunit of methyl-coenzyme M reductase, Methanosarcina acetivorans; chromosomally encoded; differs only in the posttranslational modifications; also called McrA from ΔycaO-tfuA/ΔmcmA; source: endogenous, M. acetivorans ΔmcmAΔycaO-tfuA strain with TAP-tagged mcrG
B2: McrA from the ΔmamAΔmcmA double mutant of M. acetivorans (lacks 5-(S)-methylarginine and S-methylcysteine) (natural protein, Methanosarcina acetivorans, UniProt Q8THH1 1-570, looked up)
chain: B1 chain
modifications: N1-methylhistidine at His271; thioglycine at Gly465; didehydroaspartate at Asp470; Arg285 and Cys472 unmodified
notes: McrA, alpha subunit of methyl-coenzyme M reductase, Methanosarcina acetivorans; chromosomally encoded; differs only in the posttranslational modifications; source: endogenous, M. acetivorans ΔmamAΔmcmA strain with TAP-tagged mcrG
B3: McrA from the ΔmamA mutant of M. acetivorans (lacks 5-(S)-methylarginine) (natural protein, Methanosarcina acetivorans, UniProt Q8THH1 1-570, looked up)
chain: B1 chain
modifications: N1-methylhistidine at His271; thioglycine at Gly465; didehydroaspartate at Asp470; S-methylcysteine at Cys472; Arg285 unmodified
notes: McrA, alpha subunit of methyl-coenzyme M reductase, Methanosarcina acetivorans; chromosomally encoded; differs only in the posttranslational modifications; also called McrA with unmodified Arg285; source: endogenous, M. acetivorans ΔmamA strain with TAP-tagged mcrG
B4: McrA from the ΔmamAΔycaO-tfuA double mutant of M. acetivorans (lacks 5-(S)-methylarginine and thioglycine) (natural protein, Methanosarcina acetivorans, UniProt Q8THH1 1-570, looked up)
chain: B1 chain
modifications: N1-methylhistidine at His271; didehydroaspartate at Asp470; S-methylcysteine at Cys472; Arg285 and Gly465 unmodified
notes: McrA, alpha subunit of methyl-coenzyme M reductase, Methanosarcina acetivorans; chromosomally encoded; differs only in the posttranslational modifications; source: endogenous, M. acetivorans ΔmamAΔycaO-tfuA strain with TAP-tagged mcrG
B5: McrA from the ΔycaO-tfuA mutant of M. acetivorans (lacks thioglycine) (natural protein, Methanosarcina acetivorans, UniProt Q8THH1 1-570, looked up)
chain: B1 chain
modifications: N1-methylhistidine at His271; 5-(S)-methylarginine at Arg285; didehydroaspartate at Asp470; S-methylcysteine at Cys472; Gly465 unmodified
notes: McrA, alpha subunit of methyl-coenzyme M reductase, Methanosarcina acetivorans; chromosomally encoded; differs only in the posttranslational modifications; also called McrA with unmodified Gly465; source: endogenous, M. acetivorans ΔycaO-tfuA strain with TAP-tagged mcrG
B6: McrA from the ΔmamAΔmcmAΔycaO-tfuA triple mutant of M. acetivorans (lacks 5-(S)-methylarginine, S-methylcysteine and thioglycine) (natural protein, Methanosarcina acetivorans, UniProt Q8THH1 1-570, looked up)
chain: B1 chain
modifications: N1-methylhistidine at His271; didehydroaspartate at Asp470; Arg285, Gly465 and Cys472 unmodified
notes: McrA, alpha subunit of methyl-coenzyme M reductase, Methanosarcina acetivorans; chromosomally encoded; differs only in the posttranslational modifications; also called McrA from the triple-deletion mutant; source: endogenous, M. acetivorans ΔmamAΔmcmAΔycaO-tfuA strain with TAP-tagged mcrG
B7: McrA from the ΔmcmA mutant of M. acetivorans (lacks S-methylcysteine) (natural protein, Methanosarcina acetivorans, UniProt Q8THH1 1-570, looked up)
chain: B1 chain
modifications: N1-methylhistidine at His271; 5-(S)-methylarginine at Arg285; thioglycine at Gly465; didehydroaspartate at Asp470; Cys472 unmodified
notes: McrA, alpha subunit of methyl-coenzyme M reductase, Methanosarcina acetivorans; chromosomally encoded; differs only in the posttranslational modifications; also called McrA with unmodified Cys472; source: endogenous, M. acetivorans ΔmcmA strain with TAP-tagged mcrG
B8: alpha subunit of methyl-coenzyme M reductase (McrA) from wild-type M. acetivorans, fully modified (natural protein, Methanosarcina acetivorans, UniProt Q8THH1 1-570, looked up)
chain: B1 chain
modifications: N1-methylhistidine at His271; 5-(S)-methylarginine at Arg285; thioglycine at Gly465; didehydroaspartate at Asp470; S-methylcysteine at Cys472
notes: McrA, alpha subunit of methyl-coenzyme M reductase, Methanosarcina acetivorans; chromosomally encoded; Two copies stand in the α2β2γ2 complex; also called α subunit of MCR; α-subunit; source: endogenous, M. acetivorans strain with TAP-tagged mcrG

Molecular target: the molecule itself
Test: crystal structure; TAP-tagged MCR variants affinity-purified aerobically from the modification mutants, inactive Ni(II) form; 3-30 mg/ml, hanging drops, same reservoir solution as the wild type; 1.9-2.3 Å

Binding result, binds:
B1
B2
B3
B4
B5
B6
B7

Molecular target: the molecule itself
Test: crystal structure; wild-type TAP-tagged MCR complex affinity-purified aerobically from M. acetivorans, inactive Ni(II) form; 25 mg/ml, sitting drops, 0.2 M ammonium acetate, 0.1 M sodium acetate pH 4, 15% PEG 4000, room temperature; 1.65 Å

Binding result, binds:
B8
